Test results taken from paper PMC9428257 (2022).

B1: yeast-displayed wild-type sBCMA (human BCMA extracellular domain, Met1-Ala54) [human] / human APRIL (a proliferation-inducing ligand) [human] (parent complex)
chain 1: MLQMAGQCSQNEYFDSLLHACIPCQLRCSSNTPPLTCQRYCNASVTNSVKGTNA
chain 2: AVLTQKQKKQHSVLHLVPINATSKDDSDVTEVMWQPALRRGRGLQAQGYGVRIQDAGVYLLYSQVLFQDVTFTMGQVVSREGQGRQETLFRCIRSMPSHPDRAYNSCYSAGVFHLHQGDILSVIIPRARAKLNLSPHGTFLGFVKL

Variants of: B1
Test: flow cytometry binding curve of yeast-displayed sBCMA

Row | Variant | screen value
1 | chain 1 S16G, chain 1 H19Y, chain 1 T36A | 325
